Data published in patent US20060199768A1.

Biological target: RecA protein (E. coli)

RecA N-30 (peptide)
I50, ATPase activity of the RecA NPF: 600 µM
